Measured values taken from patent publication US20200040059A1.
Changes are numbered by the printed parent chain. Names may count otherwise.

Tests used:
[1] = biological target: CD96, expressed on transfected cells (UniProt P40200); assay: flow cytometry on transfected cells
[2] = biological target: T1, human TIGIT, full length, expressed on transfected cells (human) (UniProt Q495A1); assay: flow cytometry on transfected cells
T1 sequence: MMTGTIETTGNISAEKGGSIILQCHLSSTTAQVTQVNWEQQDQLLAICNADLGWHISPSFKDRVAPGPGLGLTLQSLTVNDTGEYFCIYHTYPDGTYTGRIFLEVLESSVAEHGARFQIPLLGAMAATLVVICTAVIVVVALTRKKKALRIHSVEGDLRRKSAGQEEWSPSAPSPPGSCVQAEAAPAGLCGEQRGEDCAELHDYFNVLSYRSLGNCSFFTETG

[3] = biological target: CD112R, expressed on transfected cells (human) (UniProt Q6DKI7); assay: flow cytometry on transfected cells
[4] = biological target: T2, TIGIT (human) (UniProt Q495A1); assay: flow cytometry, TIGIT-expressing cells
T2 sequence: T1 sequence

[5] = biological target: T3, CD112R (full length, expressed on transfected cells) (human), Q6DKI7; assay: flow cytometry on cells expressing the target, 20 nM; conditions: remark: other sources report otherwise
T3 chain: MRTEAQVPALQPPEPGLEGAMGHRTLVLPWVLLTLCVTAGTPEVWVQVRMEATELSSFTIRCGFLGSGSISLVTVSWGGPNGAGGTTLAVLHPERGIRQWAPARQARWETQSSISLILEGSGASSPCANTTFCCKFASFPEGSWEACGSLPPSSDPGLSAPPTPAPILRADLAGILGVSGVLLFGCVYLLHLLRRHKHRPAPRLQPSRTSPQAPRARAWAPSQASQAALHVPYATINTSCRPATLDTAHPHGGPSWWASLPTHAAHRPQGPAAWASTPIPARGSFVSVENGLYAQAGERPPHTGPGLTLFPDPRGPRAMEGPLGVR

[6] = biological target: T3, CD112R (full length, expressed on …); assay: flow cytometry, 20 nM; ratio to WT CD112 IgV-Fc; conditions: remark: other sources report otherwise
[7] = biological target: human ICOS as used for the 'ICOS OD' read-out of Table 14 (human); assay: binding read as OD; format not described
human ICOS as used for the 'ICOS OD' read-out of Table 14 (human), sequence (Q9Y6W8 whole entry): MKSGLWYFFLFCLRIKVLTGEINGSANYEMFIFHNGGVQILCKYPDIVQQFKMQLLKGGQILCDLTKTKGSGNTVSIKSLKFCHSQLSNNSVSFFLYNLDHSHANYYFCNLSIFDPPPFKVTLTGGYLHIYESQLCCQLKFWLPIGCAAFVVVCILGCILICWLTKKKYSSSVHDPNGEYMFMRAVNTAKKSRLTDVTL

[8] = biological target: human CD28, full-length, expressed on transfected Expi293 cells (human) (UniProt P10747); assay: flow cytometry on CD28-expressing Expi293 cells
[9] = biological target: T2, TIGIT (human); assay: flow cytometry, transfected cells
[10] = biological target: T4, CD226 (human) (UniProt Q15762); assay: flow cytometry, transfected cells
T4 sequence: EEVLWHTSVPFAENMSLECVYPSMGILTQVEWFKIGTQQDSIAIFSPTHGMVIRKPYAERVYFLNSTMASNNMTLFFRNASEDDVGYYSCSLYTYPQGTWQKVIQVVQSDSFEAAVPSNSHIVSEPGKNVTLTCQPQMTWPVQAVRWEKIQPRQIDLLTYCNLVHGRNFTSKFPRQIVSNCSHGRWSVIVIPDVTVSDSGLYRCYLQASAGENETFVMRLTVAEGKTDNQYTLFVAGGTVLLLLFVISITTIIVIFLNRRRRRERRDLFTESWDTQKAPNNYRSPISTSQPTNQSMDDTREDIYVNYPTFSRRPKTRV

[11] = biological target: T5, CD96 (UniProt P40200); assay: flow cytometry, cells
T5 sequence (looked up): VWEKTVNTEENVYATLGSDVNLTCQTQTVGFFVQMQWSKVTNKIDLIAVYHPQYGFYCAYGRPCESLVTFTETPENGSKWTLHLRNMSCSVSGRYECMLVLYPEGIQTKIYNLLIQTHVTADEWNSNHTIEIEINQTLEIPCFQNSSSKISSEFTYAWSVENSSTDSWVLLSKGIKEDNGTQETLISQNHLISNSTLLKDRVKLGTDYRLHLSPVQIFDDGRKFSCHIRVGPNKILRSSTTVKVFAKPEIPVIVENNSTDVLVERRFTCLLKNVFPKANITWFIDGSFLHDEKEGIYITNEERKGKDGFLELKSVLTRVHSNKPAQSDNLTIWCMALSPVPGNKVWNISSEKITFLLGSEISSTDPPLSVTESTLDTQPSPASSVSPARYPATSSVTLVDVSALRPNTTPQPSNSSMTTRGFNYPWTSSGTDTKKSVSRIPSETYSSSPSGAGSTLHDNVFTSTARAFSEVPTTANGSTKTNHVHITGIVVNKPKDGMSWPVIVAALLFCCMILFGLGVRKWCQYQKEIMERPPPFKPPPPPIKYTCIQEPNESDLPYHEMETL

B1: CD155 variant T45Q, S52M, L104E IgV-Fc (Fc fusion, not shown: a dimerising Fc or GST; small tags and cut ends)
chain: PGTGDVVVQAPTQVPGFLGDSVTLPCYLQVPNMEVTHVSQLQWARHGEMGSMAVFHQTQGPSYSESKRLEFVAARLGAELRNASLRMFGLRVEDEGNYTCEFVTFPQGSRSVDIWL
**Q.** With B1 as the binder, how does the MFI at 100 nM [1] read?
**A.** 6310

**Q.** And the MFI at 100 nM [2]?
**A.** 79500

**Q.** What about the MFI at 100 nM [3] of the same binder?
**A.** 2600

B2: CD155 variant T45Q, S52R, L104E IgV-Fc (Fc fusion, not shown: a dimerising Fc or GST; small tags and cut ends)
chain: B1 chain with M49R
**Q.** What does the source list for B2?
**A.** MFI at 100 nM [1]: 3750; MFI at 100 nM [2]: 122000; MFI at 100 nM [3]: 2620

B3: CD155 variant IgV-Fc P18S, S42G, T45V, F58L, S67W, L104N (Fc fusion, not shown: a dimerising Fc or GST; large carriers; small tags and cut ends)
chain: B1 chain with P15S, S39G, Q42V, M49S, F55L, S64W, E101N
**Q.** With B3 as the binder, how does the MFI at 100 nM [4] read?
**A.** 14100 MFI

B4: WT CD112-Fc ECD, Q92692 32-360 (Fc fusion, not shown: a dimerising Fc or GST; small tags and cut ends)
chain: QDVRVQVLPEVRGQLGGTVELPCHLLPPVPGLYISLVTWQRPDAPANHQNVAAFHPKMGPSFPSPKPGSERLSFVSAKQSTGQDTEAELQDATLALHGLTVEDEGNYTCEFATFPKGSVRGMTWLRVIAKPKNQAEAQKVTFSQDPTTVALCISKEGRPPARISWLSSLDWEAKETQVSGTLAGTVTVTSRFTLVPSGRADGVTVTCKVEHESFEEPALIPVTLSVRYPPEVSISGYDDNWYLGRTDATLSCDVRSNPEPTGYDWSTTSGTFPTSAVAQGSQLVIHAVDSLFNTTFVCTVTNAVGMGRAEQVIFVRETPNTAGAGATGG
**Q.** How did the MFI at 20 nM [5] turn out when B4 was run?
**A.** 1250

**Q.** What about the Fold Increase to WT IgV [6] of the same binder?
**A.** 0.75 fold

B5: ICOSL variant N52S/T113E ECD-Fc fusion (Fc fusion, UniProt O75144 19-256 with N52S T113E, looked up, part only)
extracellular domain: DTQEKEVRAMVGSDVELSCACPEGSRFDLNDVYVYWQTSESKTVVTYHIPQSSSLENVDSRYRNRALMSPAGMLRGDFSLRLFNVTPQDEQKFHCLVLSQSLGFQEVLSVEVELHVAANFSVPVVSAPHSPSQDELTFTCTSINGYPRPNVYWINKTDNSLLDQALQNDTVFLNMRGLYDVVSVLRIARTPSVNIGCCIENVLLQQNLTVGSQTGNDIGERDKITENPVSTGEKNAAT
modifications: extracellular domain human IgG1 Fc fusion
**Q.** Which results are given for B5?
**A.** ICOS OD parental ratio (ratio to WT ICOSL ECD-Fc) [7]: 1.76; MFI [8]: 54 MFI; MFI parental ratio (ratio to WT ICOSL ECD-Fc) [8]: 3

B6: CD155 G7E, P18T, Y30C, F91S IgV-Fc (Fc fusion, not shown: a dimerising Fc or GST; small tags and cut ends)
chain: B1 chain with G4E, P15T, Y27C, Q42T, M49S, F88S, E101L
**Q.** Which MFI [9] does the source give for B6 here?
**A.** 13000

**Q.** What about the MFI [10] of the same binder?
**A.** 12900

**Q.** And the MFI [11]?
**A.** 7910
